The values below come from patent US20230122991A1, “GROWTH FACTOR FORMULATION FOR CONDITION ASSOCIATED WITH OTIC EVENT” (OTONOMY, INC., priority 2020, published 2023).

Experiment [1] deals with adult rats following noise damage. Description: Noise-induced cochlear synaptopathy, IHC synaptic puncta counts (Example G). It is filed as in vivo, rat. To be noted: each frequency region throughout the cochlea; BDNF in P407 after noise; Day 28; FIG. 13C. On the procedure:
(§1) Animals: Male Sprague-Dawley rats (5-6 months of age) were used for efficacy studies and females (2-3 months) were used for pharmacokinetic studies.
Formulations: Human recombinant BDNF was suspended in the thermoreversible polymer Poloxamer 407 (16%) to reach a range of BDNF concentrations.
(§2) Intratympanic (IT) injection: Formulations were administered under anesthesia as a single IT injection (20 μl) through the tympanic membrane into the middle ear, targeting the round window membrane (RWM).
Noise-induced cochlear synaptopathy: Rats (n=44 per treatment group) received a single acoustic trauma (105 dB SPL, 8-16 kHz, 1 h) under anesthesia. 24 hours later (Day 1) animals received a single bilateral IT injection of the treatment regimens. Auditory function (ABR and ABR wave 1 amplitude) was monitored at day 1 and then every 7 days for 28 days. At termination (Day 28), cochleae were collected and assessed for evidence of cochlear synaptopathy (IHC synaptic puncta counts).
Immunohistochemistry: Dissected cochleae were immunostained with antibodies against presynaptic (CtBP2) and postsynaptic (GluR2) proteins and MyosinVIIa to label hair cells. Cochleae were then frequency mapped and high-magnification images were obtained with a Zeiss LSM-880 confocal microscope and imaged at an interval of 0.35 μm.
Intratympanic BDNF repairs cochlear synaptopathy in adult rats. […]

For experiment [2], the system named is adult male rats bilaterally exposed to noise. As to the kind of experiment: Noise-induced cochlear synaptopathy, ABR and wave I amplitude after delayed intratympanic injection (Example L). Type of experiment: in vivo, rat. To be noted: for ABR threshold shift: ABR at day 28, FIG. 21; for wave I amplitudes: day 28, FIG. 22. On the procedure: as §1
Formulations: Human recombinant BDNF was suspended in the thermoreversible polymer Poloxamer 407 (16%) to reach a BDNF concentration of 0.005%.
as §2
Noise-induced cochlear synaptopathy: Rats received a single acoustic trauma (105 dB SPL, 8-16 kHz, 1 h) under anesthesia. […] Auditory function (ABR and ABR wave 1 amplitude) was monitored at day 28. At termination (Day 28), cochleae were collected and assessed for evidence of cochlear synaptopathy (IHC synaptic puncta counts).
Intratympanic BDNF Injected 1, 3, or 7 Days After Acoustic Trauma improves Auditory Brainstem Response (ABR) thresholds and wave I amplitudes in adult rats. The Auditory Brainstem Response (ABR) is an objective test that measures hearing sensitivity and can identify abnormalities in the peripheral auditory system and the auditory pathway up through the brainstem. Adult male rats were bilaterally exposed to noise followed by an intratympanic injection of 0.005% BDNF in P407 1 day, 3 days, 7 days, or 14 days after noise exposure. ABR recordings were obtained at day 28.
The ABR Wave I amplitude is an indicator of the strength of the distal cochlear nerve signal, i.e., the response of the spiral ganglion neurons/synapses.

Where [3] appears, read: 0.005% BDNF in P407 injected 1, 3, or 7 days after noise exposure.
[4] abbreviates: 0.005% BDNF in P407 injected 14 days after noise exposure.

B1: brain-derived neurotrophic factor (protein, UniProt P23560 129-247, looked up)
Neurotrophic factor BDNF: HSDPARRGELSVCDSISEWVTAADKKTAVDMSGGTVTVLEKVPVSKGQLKQYFYETKCNPMGYTKEGCRGIDKRHWNSQCRTTQSYVRALTMDSKKRIGWRFIRIDTSCVCTLTIKRGR
modifications: Neurotrophic factor BDNF in 16% poloxamer 407 gel
notes: Human recombinant BDNF
As to B1, in experiment [1], the “synaptic puncta (co-expression of CtBp2 and GluR2) per inner hair cell” value is listed as “increased”. The ABR threshold shift entry in experiment [2] (setting [3]) was “more rapid recovery of initial threshold shifts and overall reduced levels of hearing loss”; in experiment [2] (setting [4]), “did not showed a more rapid recovery of initial threshold shifts and overall reduced levels of hearing loss”. Besides, the “wave I amplitudes” value is on record as “significant improvements” in experiment [2] (setting [3]) and “did not show significant improvements” in experiment [2] (setting [4]).
